Patent US20220259593A1, “CONTROL OF MAMMALIAN GENE DOSAGE USING CRISPR” (The Regents of the University of California, priority 2019, published 2022)

Test system: K562 CRISPRi cells
Assay: Constant region variant library pooled growth screen, K562
Assay type: cell-based, human
Details: sgRNA constant region variants
How it was run: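 Relative activity expresses each targeting sequence:constant region pair's phenotype over that of the unmodified constant region. Pooled growth screen ran in K562 CRISPRi cells in duplicate spinner-flask replicates, with puromycin selection and 4–8 days' growth at >2000× coverage; library paired variants with 36 targeting sequences.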

[1] = relative to the original, un-modified constant region cr995 (= 1)
[2] = activity relative to the un-modified constant region cr995
[3] = activity relative to the original, un-modified constant region cr995

B1: cr145 (nucleic acid)
guide: GTTTAAGAGCTAAGCTGGAAACAGCATAGCAAGTTTAAATAAGGCTAGTCCGTTATCAACTTGATAAAGTGGCACCGAGTCGGTGCT
modifications: listed as DNA, chemistry not fully specified
Mean relative activity [1]: 0.9925

B2: cr251 (nucleic acid)
guide: GTTTAAGAGCTAAGCTGGAAACAGCATAGCAAGTTTAAATAAGGCTAGTCCGTGATCAACTTGTAAAAGTGGCACCGACTCGGTGCT
modifications: listed as DNA, chemistry not fully specified
Mean relative activity [2]: 0.9836

B3: cr653 (nucleic acid)
guide: GTTTAAGAGCTAAGCTGGAAACAGCATAGCAAGTTTAAATAAGGCTAGTCCGTTATCAACTTGAAAAAGTGGCACAGAGTCTGTGCT
modifications: listed as DNA, chemistry not fully specified
Mean relative activity [1]: 0.9907

B4: cr670 (nucleic acid)
guide: GTTTAAGAGCTAAGCTGGAAACAGCATAGCAAGTTTAAATAAGGCTAGTCCGTTATCAACTTGAAAAAGGGGCACCGAGTCGGTGCT
modifications: listed as DNA, chemistry not fully specified
Mean relative activity [1]: 0.9903

B5: cr839 (nucleic acid)
guide: GTTTAAGAGCTAAGCTGGAAACAGCATAGCAAGTTTAAATAAGGCTAGTCCGTTATCAACTTGAGAAAGTGGCACCGAGTCGGTGCT
modifications: listed as DNA, chemistry not fully specified
Mean relative activity [1]: 0.9918

B6: cr669 (nucleic acid)
guide: GTTTAAGAGCTAAGCTGGAAACAGCATAGCAAGTTTAAATAAGGCTAGTCCGTTATCAACTTGAAAAAGTGGCACCGAATCGGTGCT
modifications: listed as DNA, chemistry not fully specified
Mean relative activity [1]: 0.9881

B7: cr782 (nucleic acid)
guide: GTTTAAGAGCTAAGCTGGAAACAGCATAGCAAGTTTAAATAAGGCTAGTCCGTTATCAACTTTAGAAAGTGGCACCGAGTCGGTGCT
modifications: listed as DNA, chemistry not fully specified
Mean relative activity [2]: 0.9816

B8: cr321 (nucleic acid)
guide: GTTTAAGAGCTAAGCTGGAAACAGCATAGCCAGTTTAAATAAGGCTAGTCCGTTATCAACTTGAAAAAGTGGCACCGAGTCGGTGCT
modifications: listed as DNA, chemistry not fully specified
Mean relative activity [1]: 0.9906

B9: cr478 (nucleic acid)
guide: GTTTAAGAGCTAAGCTGGAAACAGCATGGCAAGTTTAAATAAGGCTAGTCCGTTATCAACTTGAAAAAGTGGCACCGAGTCGGTGCT
modifications: listed as DNA, chemistry not fully specified
Mean relative activity [1]: 0.9898

B10: cr340 (nucleic acid)
guide: GTTTAAGAGCTAAGCTGGAAACAGCATAGCAAGTTTAAATAAGGCTAGTCCGTTATCAACTGGAAAAAGTGGCACCGAGTCGGTGCT
modifications: listed as DNA, chemistry not fully specified
Mean relative activity [2]: 0.9853

B11: cr346 (nucleic acid)
guide: GTTTAAGAGCTAAGCTGGAAACAGCATAGCAAGTTTAAATAAGGCTAGTCCGTTATCACATTGAAAAATGGTCACCGAGTCGGTGAT
modifications: listed as DNA, chemistry not fully specified
Mean relative activity [2]: 0.9847

B12: cr970 (nucleic acid)
guide: GTTTAAGAGCTAAGCTGGAAACAGCATAGCAAGTTTAAATAAGGCTAGTCCGTTATCAACTTGTTAAAGTGGCACCGAGTCGGTGCT
modifications: listed as DNA, chemistry not fully specified
Mean relative activity [2]: 0.9826

B13: cr973 (nucleic acid)
guide: GTTTAAGAGCTAAGCTGGAAACAGCATAGCAAGTTTAAATAAGGCTAGTCCGTTATCAACTTAAAAAAGTGGCACCGAGTCGGTGCT
modifications: listed as DNA, chemistry not fully specified
Mean relative activity [1]: 0.9873

B14: cr918 (nucleic acid)
guide: GTTTAAGAGCTAAGCTGGAAACAGCATAGCAAGTTTAAATAAGGCTAGTCCGTTATCATCTTGAAAAAGAGGCACCGAGTCGGTGCT
modifications: listed as DNA, chemistry not fully specified
Mean relative activity [2]: 0.982

B15: cr671 (nucleic acid)
guide: GTTTAAGAGCTAAGCTGGAAACAGCATAGCAAGTTTAAATAAGGCTAGTCCGTTATCAACTTGAAAAGGTGGCACCGAGTCGGTGCT
modifications: listed as DNA, chemistry not fully specified
Mean relative activity [1]: 0.9864

B16: cr563 (nucleic acid)
guide: GTTTAAGAGCTAAGCTGGAAACAGCATAGCAAGTTTAAATAAGGCTAGTCCGTTATCAAGCTGAAAAGCTGGCACCGAGTCGGTGCT
modifications: listed as DNA, chemistry not fully specified
Mean relative activity [3]: 1.068

B17: cr609 (nucleic acid)
guide: GTTTAAGAGCTAAGCTGGAAACAGCATAGCATGTTTAAATAAGGCTAGTCCGTTATCAACTTAAAAAAGTGGCACCGAATCGGTGCT
modifications: listed as DNA, chemistry not fully specified
Mean relative activity [1]: 0.9895

B18: cr906 (nucleic acid)
guide: GTTTAAGAGCTAAGCTGGAAACAGCATAGCAAGTTTAAATAAGGCTAGTCCGTTATCAACTTGAGAAAGTGGCAGCGAGTCGCTGCT
modifications: listed as DNA, chemistry not fully specified
Mean relative activity [2]: 0.9817

B19: cr353 (nucleic acid)
guide: GTTTAAGAGCTAAGCTGGAAACAGCATAGCAAGTTTAAATAAGGCTAGTCCGTTATCAACTAGAAAAAGTGGCACCGAGTCGGTGCT
modifications: listed as DNA, chemistry not fully specified
Mean relative activity [1]: 0.9885

B20: cr855 (nucleic acid)
guide: GTTTAAGAGCTAAGCTGGAAACAGCATAGCAAGTTTAAATAAGGCCAGTCCGTTCTCAACTTGACAAAGTGGCACCGAGTCGGTGCT
modifications: listed as DNA, chemistry not fully specified
Mean relative activity [2]: 0.9849

B21: cr368 (nucleic acid)
guide: GTTTAAGAGCTAAGCTGGAAACAGCATAGCAAGTTTAAATAAGGCTAGTCCGTTATCACATTGAAAAATGGGCACCGAGTCGGTGCT
modifications: listed as DNA, chemistry not fully specified
Mean relative activity [2]: 0.9836

B22: cr534 (nucleic acid)
guide: GTTTAAGAGCTAAGCTGGAAACAGCATAGCAAGTTTAAATAAGGTTAATCCGTTATCAACTTGAAAAAGTGACACCGAGTCGGTGTT
modifications: listed as DNA, chemistry not fully specified
Mean relative activity [3]: 1.069

B23: cr023 (nucleic acid)
guide: GTTTAAGGGCTAAGCTGGAAACAGCATAGCAAGTTTAAATAAGGCTAGTCCGTTATCAACTTGAAAAAGTGGCACCGAGTCGGTGCT
modifications: listed as DNA, chemistry not fully specified
Mean relative activity [1]: 0.9917

B24: cr258 (nucleic acid)
guide: GTTTAAGAGCTAAGCTGGAAACAGCATAGCAAGTTTAAATAAGGCTAGACCGTTATCAACTTGAAAAAGTGGCACCGAGTCGGTGCT
modifications: listed as DNA, chemistry not fully specified
Mean relative activity [1]: 0.9863

B25: cr578 (nucleic acid)
guide: GTTTAAGAGCTAAGCTGGAAACAGCATAGCGAGTTTAAATAAGGCTAGTCCGTTATCAACTTGATAAAGTGGCACCGAGTCGGTGCT
modifications: listed as DNA, chemistry not fully specified
Mean relative activity [2]: 0.9852

B26: cr636 (nucleic acid)
guide: GTTTAAGAGCTAAGCTGGAAACAGCATAGCAAGTTTAAATAAGGCTAGTCCGTTATCAACTTGGTAAAGTGGCACCGAGTCGGTGCT
modifications: listed as DNA, chemistry not fully specified
Mean relative activity [1]: 0.992

B27: cr270 (nucleic acid)
guide: GTTTAAGAGCTAAGCTGGAAACAGCATAGCAAGTTTAAATAAGGCTAGTCCGTTATCATCCTGAAAAGGAGGCACTGAGTCAGTGCT
modifications: listed as DNA, chemistry not fully specified
Mean relative activity [2]: 0.9835

B28: cr969 (nucleic acid)
guide: GTTTAAGAGCTAAGCTGGAAACAGCATAGCAAGTTTAAATAAGGCTAGTCCGTTATCATCTTGAGAAAGAGGCACCGAGTCGGTGCT
modifications: listed as DNA, chemistry not fully specified
Mean relative activity [2]: 0.9815

B29: cr604 (nucleic acid)
guide: GTTTAAGAGCTAAGCTGGAAACAGCATAGCAAGTTTAAATAAGGCAAGTCCGTTATCAACTTGACAAAGTGGCACCGAGTCGGTGCT
modifications: listed as DNA, chemistry not fully specified
Mean relative activity [1]: 0.9912

B30: cr843 (nucleic acid)
guide: GTTTAAGAGCTAAGCTGGAATCAGCATAGCAAGTTTAAATAAGGCTAGTCCGTTATCAACTTGAAAAAGTGGCACCGAGTCGGTGCT
modifications: listed as DNA, chemistry not fully specified
Mean relative activity [2]: 0.9823
